In doi:10.1101/2025.11.07.687288:
Like-named read-outs stand apart in the source and are kept apart here.

What was measured:
[1] = target: E-cadherin V81D L175D, as the Dimerization Activated TurboID pair (Δ-DAT: ΔEcadN and ΔEcadC); assay: split reporter
[2] = target: E-cadherin V81D L175D, as the Dimerization Activated TurboID pair (Δ-DAT: ΔEcadN and ΔEcadC); assay: split reporter; remark: listed apart in the source

## E-cadherin V81D L175D, as the Dimerization Activated TurboID pair (Δ-DAT: ΔEcadN and ΔEcadC) (receptor)
[1]
  biotinylation relative to WT-DAT, normalized for expression: 59%
[2]
  biotinylation relative to WT-DAT, normalized for expression: 38.7%
